± gives the standard deviation of the averaged measurements.

The data set relates to Saccharomyces cerevisiae. The data set is described as follows: protein stability index of tFT-peptide fusion (C-terminal peptide) (PSI (0-1 scale)); higher = more stable (slower turnover). The note with it: temperature: 30 C. Here is the method: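 MPS profiling in S. cerevisiae of the yeast C-terminome library: the last 12 aa of each annotated ORF are fused to the C-terminus of a sfGFP-mCherry timer, after a GGGS linker. Cells are FACS-sorted into 8 mCherry/sfGFP bins and deep-sequenced. PSI runs from 0 (unstable) to 1 (stable); wild type and das1Δ backgrounds, two technical replicates each.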

[1] abbreviates: genetic background: das1 deletion.

In turn, “SVSVQVKWLYSA [YER107W-A C-terminal 12 aa]” registered a protein stability index under setting [1] of 0.657 ± 0.012 and a protein stability index (genetic background: wild type) of 0.159 ± 0.017.

As for SVTSGSANFVFY [UTH1 C-terminal 12 aa], the protein stability index was found to be 0.7081 ± 0.0034 under setting [1] and 0.7 ± 0.019 (genetic background: wild type).

As for SYKWLKRETSPL [FRA1 C-terminal 12 aa], the protein stability index reads like this: under setting [1], 0.712 ± 0.024; (genetic background: wild type) 0.689 ± 0.022.

With TAIVAVVALLLL [DAN4 C-terminal 12 aa], the protein stability index was determined as 0.343 ± 0.0084 under setting [1] and 0.353 ± 0.0092 (genetic background: wild type).

Consider TAPLIQRKNKKN [RPN8 C-terminal 12 aa], for which the protein stability index was found to be 0.741 ± 0.037 under setting [1] and 0.355 ± 0.022 (genetic background: wild type).

TASGEDSHLLKQ [BRL1 C-terminal 12 aa]: the protein stability index is 0.669 ± 0.029 under setting [1] and 0.689 ± 0.026 (genetic background: wild type).

TCISVFLEVHQV [YDL206W C-terminal 12 aa] registered a protein stability index under setting [1] of 0.479 ± 0.017 and a protein stability index (genetic background: wild type) of 0.4633 ± 0.0046.

TDIENRNFRYIY [THI73 C-terminal 12 aa]: the protein stability index reads like this: under setting [1], 0.6944 ± 0.0043; (genetic background: wild type) 0.702 ± 0.022.

Consider TDIEPSAKRQKK [RPF2 C-terminal 12 aa], for which the protein stability index is, setting by setting: under setting [1], 0.776 ± 0.048; (genetic background: wild type) 0.695 ± 0.087.

As for TDNGSVLPLNPS [BAS1 C-terminal 12 aa], the protein stability index runs as follows: under setting [1], 0.696 ± 0.015; (genetic background: wild type) 0.697 ± 0.028.

For TDTEAEDDESPE [SEC63 C-terminal 12 aa], the protein stability index is, setting by setting: under setting [1], 0.692 ± 0.025; (genetic background: wild type) 0.633 ± 0.013.

In the case of TDYTRIIKMQSS [SWD1 C-terminal 12 aa], the protein stability index runs as follows: under setting [1], 0.701 ± 0.013; (genetic background: wild type) 0.251 ± 0.0049.

“TFCRLCSHIQYF [YAL059C-A C-terminal 12 aa]”: the protein stability index runs as follows: under setting [1], 0.7214 ± 0.006; (genetic background: wild type) 0.694 ± 0.022.

Regarding TFKGLYAEANSI [YOR111W C-terminal 12 aa], the protein stability index is 0.739 ± 0.01 under setting [1] and 0.716 ± 0.031 (genetic background: wild type).

The sequence TFKPIYLWALDL [SPP382 C-terminal 12 aa] gave a protein stability index under setting [1] of 0.6938 ± 0.0043 and a protein stability index (genetic background: wild type) of 0.6753 ± 0.0057.

TGLLRGSQKTQD [RPL2A C-terminal 12 aa] gave a protein stability index under setting [1] of 0.7017 ± 0.0061 and a protein stability index (genetic background: wild type) of 0.672 ± 0.0086.

Take TISPYIRVCVST [YPR099C C-terminal 12 aa]: the protein stability index amounted to 0.3891 ± 0.0037 under setting [1] and 0.424 ± 0.018 (genetic background: wild type).

In the case of TKCEEEIKNLSK [YME2 C-terminal 12 aa], the protein stability index runs as follows: under setting [1], 0.698 ± 0.022; (genetic background: wild type) 0.711 ± 0.036.

TKGGNAGTKAYN [RTC3 C-terminal 12 aa] displayed a protein stability index under setting [1] of 0.679 ± 0.011 and a protein stability index (genetic background: wild type) of 0.666 ± 0.041.

TKWWLHYYRKLR [SBE2 C-terminal 12 aa] returned a protein stability index under setting [1] of 0.7418 ± 0.005 and a protein stability index (genetic background: wild type) of 0.701 ± 0.023.

Regarding TLSMYPRRRFYH [GPG1 C-terminal 12 aa], the protein stability index came out at 0.709 ± 0.011 under setting [1] and 0.608 ± 0.043 (genetic background: wild type).

With TPEDADEEEDDE [RPL22B C-terminal 12 aa], the protein stability index turned out to be 0.6921 ± 0.0011 under setting [1] and 0.655 ± 0.014 (genetic background: wild type).

On to TPLLLGNKGKPQ [YBL094C C-terminal 12 aa], for which the protein stability index under setting [1] stood at 0.687 ± 0.019 and the protein stability index (genetic background: wild type) was 0.696 ± 0.043.

As to TQEKLDSLLLMQ [LGE1 C-terminal 12 aa], the protein stability index under setting [1] was determined as 0.702 ± 0.011 and the protein stability index (genetic background: wild type) was 0.6982 ± 0.006.

On to TREPISYKLDIQ [ERO1 C-terminal 12 aa], for which the protein stability index under setting [1] came out at 0.678 ± 0.044 and the protein stability index (genetic background: wild type) stood at 0.67 ± 0.024.

As to TRKWANAAKGMP [YLR407W C-terminal 12 aa], the protein stability index runs as follows: under setting [1], 0.6889 ± 0.0067; (genetic background: wild type) 0.727 ± 0.012.

As to TRMNVSHYYIIT [YOL166C C-terminal 12 aa], the protein stability index is 0.6573 ± 0.0038 under setting [1] and 0.641 ± 0.019 (genetic background: wild type).

Regarding TRRVAARKGKLS [UTR5 C-terminal 12 aa], the protein stability index amounted to 0.686 ± 0.0091 under setting [1] and 0.32 ± 0.014 (genetic background: wild type).

For TSAFNKLHIVEE [YAK1 C-terminal 12 aa], the protein stability index by setting is: under setting [1], 0.712 ± 0.024; (genetic background: wild type) 0.67 ± 0.045.

For TSDHLFVVFFFW [YDL034W C-terminal 12 aa], the protein stability index was found to be 0.327 ± 0.019 under setting [1] and 0.319 ± 0.035 (genetic background: wild type).

Turning to TSHEAVAAKKLI [SHC1 C-terminal 12 aa], the protein stability index by setting is: under setting [1], 0.673 ± 0.018; (genetic background: wild type) 0.249 ± 0.011.

In the case of TSILEDVDGDDE [YOL050C C-terminal 12 aa], the protein stability index runs as follows: under setting [1], 0.706 ± 0.041; (genetic background: wild type) 0.669 ± 0.026.

For the sequence TSPRNICTSLCV [SAL1 C-terminal 12 aa], the protein stability index was 0.66358 ± 0.00023 under setting [1] and 0.655 ± 0.038 (genetic background: wild type).

For the sequence TTDEEVKEKKKR [GLE2 C-terminal 12 aa], the protein stability index by setting is: under setting [1], 0.6893 ± 0.0049; (genetic background: wild type) 0.692 ± 0.028.

Turning to TTNANVNNSSLS [FKH1 C-terminal 12 aa], the protein stability index reads like this: under setting [1], 0.715 ± 0.021; (genetic background: wild type) 0.6623 ± 0.0022.

Regarding TVLKAAKKEGLN [MGR3 C-terminal 12 aa], the protein stability index runs as follows: under setting [1], 0.672 ± 0.015; (genetic background: wild type) 0.671 ± 0.044.

For the sequence TVNYLHRLLETD [ISN1 C-terminal 12 aa], the protein stability index came to 0.73 ± 0.009 under setting [1] and 0.721 ± 0.039 (genetic background: wild type).

As for TVPGDENKITKK [PDR12 C-terminal 12 aa], the protein stability index by setting is: under setting [1], 0.711 ± 0.017; (genetic background: wild type) 0.654 ± 0.064.

As to TVSDGGSIFECS [RAD28 C-terminal 12 aa], the protein stability index is 0.7127 ± 0.0051 under setting [1] and 0.708 ± 0.06 (genetic background: wild type).

For the sequence TYRLLLRLHAQD [FAR7 C-terminal 12 aa], the protein stability index was 0.68 ± 0.035 under setting [1] and 0.641 ± 0.019 (genetic background: wild type).

As for TYSYTIDHPVLT [NUP100 C-terminal 12 aa], the protein stability index by setting is: under setting [1], 0.659 ± 0.021; (genetic background: wild type) 0.659 ± 0.034.

Consider VAASKASKKSKI [NSA1 C-terminal 12 aa], for which the protein stability index was determined as 0.683 ± 0.035 under setting [1] and 0.677 ± 0.085 (genetic background: wild type).

With VAFFKAVGATIM [YOR146W C-terminal 12 aa], the protein stability index stood at 0.625 ± 0.011 under setting [1] and 0.627 ± 0.054 (genetic background: wild type).

As for VAKAEKLAAEAN [ATP2 C-terminal 12 aa], the protein stability index runs as follows: under setting [1], 0.684 ± 0.03; (genetic background: wild type) 0.705 ± 0.022.

Take VDALQIQYNRRP [SCD5 C-terminal 12 aa]: the protein stability index turned out to be 0.681 ± 0.013 under setting [1] and 0.692 ± 0.033 (genetic background: wild type).

VDESWLPETYKK [IRC22 C-terminal 12 aa] came in with a protein stability index under setting [1] of 0.7425 ± 0.0014 and a protein stability index (genetic background: wild type) of 0.711 ± 0.022.

With VDQLFEKASVLY [RPN6 C-terminal 12 aa], the protein stability index under setting [1] is 0.68 ± 0.017 and the protein stability index (genetic background: wild type) came to 0.721 ± 0.03.

With VFISTVLLAIVW [YAL065C C-terminal 12 aa], the protein stability index by setting is: under setting [1], 0.196 ± 0.015; (genetic background: wild type) 0.192 ± 0.0067.

As to VFPDVLFTFLFS [YEL010W C-terminal 12 aa], the protein stability index under setting [1] is 0.70228 ± 0.00029 and the protein stability index (genetic background: wild type) came to 0.713 ± 0.027.

VFPGNYVQLNKN [RVS167 C-terminal 12 aa]: the protein stability index reads like this: under setting [1], 0.6933 ± 0.0022; (genetic background: wild type) 0.679 ± 0.027.

The values are drawn from the supplement of paper PMC10724198.
